Data reported in article PMC7383310.
Several values for one entry are separate records, joined by “and”; a condition that tells them apart may be missing. Equal entries are not always repeated.

Target: recombinant human galectin-3 protein (human) (UniProt P17931)
Test: AlphaScreen or HTRF; indirect AlphaLISA saturation binding; His-tagged tau K18 (0-100 nM, analyte) on anti-His donor beads, untagged GAL-3 (1, 3 and 10 nM) captured by anti-GAL-3 antibody and anti-rabbit IgG acceptor beads; proteins incubated 60 min at 4°C, beads 60 min at RT in the dark; assay buffer in DPBS; Kd = concentration at 50% saturation

Sequence of UniProt P17931 (P17931 whole entry): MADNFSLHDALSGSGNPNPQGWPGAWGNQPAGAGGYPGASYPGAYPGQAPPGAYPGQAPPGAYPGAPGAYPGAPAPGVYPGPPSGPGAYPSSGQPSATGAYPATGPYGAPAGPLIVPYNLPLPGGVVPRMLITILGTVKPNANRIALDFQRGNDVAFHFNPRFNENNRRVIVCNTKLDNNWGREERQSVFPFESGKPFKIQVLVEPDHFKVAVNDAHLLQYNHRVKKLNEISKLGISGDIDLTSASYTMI

For “His-tagged human tau K18 fragment (domain or fragment)”, the Kd was 8.31 nM and 8.73 nM and 9.13 nM.
